Laboratory results from article PMC6488028.

Target: GenB1 (aminotransferase involved in C6'-amination, Micromonospora echinospora) (Micromonospora echinospora)
Test: crystal structure

Which stoichiometry N does the source give for “GenB1 (aminotransferase involved in C6'-amination, Micromonospora echinospora) (enzyme)” here?
Its stoichiometry N is 2.
